How the values were obtained:
[1] = target: T1, human vascular endothelial growth factor receptor-2 Fc chimera (KDR-Fc) (human, UniProt P35968 20-764); assay: binding to 1 nM KDR-Fc, % of input; radioactive equilibrium binding (assay not given)
T1 construct: range 1-764; also called human VEGFR-2; hKDR; not shown: human IgG1 Fc
Description: (§1) To prepare ³⁵S-labeled binding proteins for analysis, mRNA was prepared as described above for RNA-protein fusion production but the linker ligation step was omitted. The mRNA was expressed using rabbit reticulocyte lysate translation kit (Ambion) in the presence of ³⁵S-labeled Met at 30° C. for 1 hour. Expressed protein was purified on M2-agarose Flag beads (Sigma) as described above. This procedure produced the encoded protein without the nucleic acid tail. In a direct binding assay, VEGF-R2-Fc fusions in concentrations ranging from 0 to 200 nM were added to a constant concentration of the purified protein (0.2 or 0.5 nM) and incubated at 30° C. for 1 hour in buffer B. The receptor-binder complexes were captured using Protein A magnetic beads for another 10 minutes at room temperature using a Kingfisher™ The beads were washed with six reaction volumes of buffer B. The protein was eluted from the beads with 100 μL of 0.1 M KOH. […] of the reaction mixture and elution were dried onto a LumaPlate-96 (Packard) and the amount of ³⁵S on the plate was measured using a TopCount NXT instrument (Packard). The amount of fibronectin-based scaffold protein bound to the target was estimated as a percent of radioactivity eluted from Protein A magnetic beads compare to radioactivity in the reaction mixture. Nonspecific binding of fibronectin-based scaffold proteins to the beads was determined by measuring binding in the absence of KDR-Fc and represented less than 1-2% of the input. Specific binding was obtained through subtraction of nonspecific binding from total binding. Data was analyzed using the GraphPad Prizm software (GraphPad Software, Inc, San Diego, Calif.), fitted using a one site, non-linear binding equation.
T1 sequence (P35968 20-764 limits assumed, change not shown, form in doubt): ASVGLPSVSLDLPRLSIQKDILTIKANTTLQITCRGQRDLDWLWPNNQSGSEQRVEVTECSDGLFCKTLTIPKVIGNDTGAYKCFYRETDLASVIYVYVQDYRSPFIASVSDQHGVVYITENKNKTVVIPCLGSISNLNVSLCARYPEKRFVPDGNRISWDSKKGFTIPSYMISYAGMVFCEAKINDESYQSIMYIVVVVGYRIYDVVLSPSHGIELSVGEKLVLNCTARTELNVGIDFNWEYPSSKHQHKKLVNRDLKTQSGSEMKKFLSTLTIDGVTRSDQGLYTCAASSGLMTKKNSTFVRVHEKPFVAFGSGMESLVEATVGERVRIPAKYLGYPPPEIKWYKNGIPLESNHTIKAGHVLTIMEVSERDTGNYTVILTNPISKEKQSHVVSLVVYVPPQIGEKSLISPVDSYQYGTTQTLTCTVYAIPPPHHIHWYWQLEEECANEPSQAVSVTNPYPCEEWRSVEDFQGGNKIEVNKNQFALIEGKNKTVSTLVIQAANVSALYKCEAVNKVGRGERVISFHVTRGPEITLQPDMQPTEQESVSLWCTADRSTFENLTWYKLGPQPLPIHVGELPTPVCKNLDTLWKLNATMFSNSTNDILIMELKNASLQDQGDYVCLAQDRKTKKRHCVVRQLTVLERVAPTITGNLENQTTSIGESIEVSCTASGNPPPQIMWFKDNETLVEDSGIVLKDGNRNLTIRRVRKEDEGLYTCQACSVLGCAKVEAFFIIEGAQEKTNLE

[2] = target: T2, mouse vascular endothelial growth factor receptor-2 Fc chimera (Flk-1-Fc) (mouse, UniProt P35918 20-762); assay: binding to 1 nM Flk-1-Fc, % of input; radioactive equilibrium binding (assay not given)
T2 construct: Purchased from R&D Systems; also called mouse VEGF-R2; not shown: Fc part of the purchased chimera
T2 sequence (P35918 20-762, change not shown): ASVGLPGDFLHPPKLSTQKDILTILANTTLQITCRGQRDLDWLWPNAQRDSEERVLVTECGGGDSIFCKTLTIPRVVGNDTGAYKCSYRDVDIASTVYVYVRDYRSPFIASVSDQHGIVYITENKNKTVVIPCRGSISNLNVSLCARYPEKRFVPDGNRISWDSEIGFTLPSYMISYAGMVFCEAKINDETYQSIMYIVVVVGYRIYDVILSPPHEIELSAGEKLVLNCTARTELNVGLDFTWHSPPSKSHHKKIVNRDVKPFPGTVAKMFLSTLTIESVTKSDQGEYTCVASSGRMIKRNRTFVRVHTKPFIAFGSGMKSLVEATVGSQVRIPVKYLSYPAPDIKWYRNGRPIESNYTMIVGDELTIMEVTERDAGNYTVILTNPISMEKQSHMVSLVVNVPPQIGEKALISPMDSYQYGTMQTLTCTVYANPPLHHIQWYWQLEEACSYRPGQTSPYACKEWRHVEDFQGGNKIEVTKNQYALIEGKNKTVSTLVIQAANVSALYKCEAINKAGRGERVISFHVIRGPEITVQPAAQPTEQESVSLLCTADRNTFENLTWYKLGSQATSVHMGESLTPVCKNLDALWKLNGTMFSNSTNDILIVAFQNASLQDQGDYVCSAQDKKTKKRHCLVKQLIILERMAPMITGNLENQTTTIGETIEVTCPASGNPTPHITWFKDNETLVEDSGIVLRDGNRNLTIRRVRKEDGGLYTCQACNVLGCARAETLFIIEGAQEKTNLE
Description: as §1

[3] = target: T1, human vascular endothelial growth …; assay: radioactive equilibrium binding (assay not given)
Description: as §1

[4] = target: T3, human vascular endothelial growth factor receptor-2 Fc chimera (KDR-Fc) (human, UniProt P35968 20-764); assay: radioactive equilibrium binding, KDR-Fc
T3 construct: range 1-764; also called human VEGFR-2; VEGF-R2-Fc; not shown: human IgG1 Fc
Description: as §1
T3 sequence (P35968 20-764 limits assumed, change not shown, form in doubt): as the sequence (P35968 20-764 limits assumed, change not shown, form in doubt) above

[5] = target: T3, human vascular endothelial growth …; assay: radioactive equilibrium binding, 1 nM KDR-Fc
Procedure, shortened: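 Read-out: eluted ³⁵S as % of input radioactivity, minus bead-only binding without KDR-Fc (under 1-2% of input); one-site non-linear fit. Tracer binder 0.2 or 0.5 nM, receptor-Fc 0–200 nM, 1 h at 30° C in buffer B.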

| Binder | Binding to 1 nM KDR, % [1] [%] | Binding to 1 nM FLK, % [2] [%] | Kd [3] [nM] | Kd [4] [nM] | Binding to 1 nM KDR, % [5] [%] |
| --- | --- | --- | --- | --- | --- |
| E8 (designed binder, Del 1-8 10Fn3 clone; Flag tag of the radioactive-assay form not included) EVVAATPTSLLISWRHPHFPTRYYRITYGETGGNSPVQEFTVPLQPPTATISGLKPGVDYTITGYAVTEEWNGRVLMTPISINYRT | 51 | 10 |  |  |  |
| E14 (designed binder, Del 1-8 10Fn3 clone; Flag tag of the radioactive-assay form not included) EVVAATPTSLLISWRHPHFPTRYYRITYGETGGNSPVQEFTVPLQPPTATISGLKPGVDYTITGYAVTLERNGQVLFTPISINYRT | 33 | 11 |  |  |  |
| E17 (designed binder, Del 1-8 10Fn3 clone; Flag tag of the radioactive-assay form not included) EVVAATPTSLLISWRHPHFPTRYYRITYGETGGNSPVQEFTVPLQPPTATISGLKPGVDYTITGYAVTVEENGRVLNTPISINYRT | 32 | 10 |  |  |  |
| E24 (designed binder, Del 1-8 10Fn3 clone; Flag tag of the radioactive-assay form not included) EVVAATPTSLLISWRHPHFPTRYYRITYGETGGNSPVQEFTVPLQPPTATISGLKPGVDYTITGYAVTVERNDRVLFTPISINYRT | 24 | 29 |  |  |  |
| E27 (designed binder, Del 1-8 10Fn3 clone; Flag tag of the radioactive-assay form not included) EVVAATPTSLLISWRHPHFPTRYYRITYGETGGNSPVQEFTVPLQPPTATISGLKPGVDYTITGYAVTVERNGHTLMTPISINYRT | 37 | 9 |  |  |  |
| K6 (designed binder, Del 1-8 10Fn3 clone; Flag tag of the assay form not included) EVVAATPTSLLISWRHPHFPTRYYRITYGETGGNSPVQEFTVPLQPPTATISGLKPGVDYTITGYAVTDGKDGRVLLTPISINYRT | 27 |  | 0.93 |  |  |
| K7 (designed binder, Del 1-8 10Fn3 clone; Flag tag of the assay form not included) EVVAATPTSLLISWRHPHFPTRYYRITYGETGGNSPVQEFTVPLQPPTATISGLKPGVDYTITGYAVTSGHNDHMLMIPISINYRT | 40 |  | 2.2 |  |  |
| K8 (designed binder, Del 1-8 10Fn3 clone; Flag tag of the assay form not included) EVVAATPTSLLISWRHPHFPTRYYRITYGETGGNSPVQEFTVPLQPPTATISGLKPGVDYTITGYAVTVTHNGHPLMTPISINYRT | 18 |  | 3.3 |  |  |
| K9 (designed binder, Del 1-8 10Fn3 clone; Flag tag of the assay form not included) EVVAATPTSLLISWRHPHFPTRYYRITYGETGGNSPVQEFTVPLQPPTATISGLKPGVDYTITGYAVTFGLYGKELLIPISINYRT | 35 |  | 1.8 |  |  |
| K10 (designed binder, Del 1-8 10Fn3 clone; Flag tag of the assay form not included) EVVAATPTSLLISWRHPHFPTRYYRITYGETGGNSPVQEFTVPLQPPTATISGLKPGVDYTITGYAVTTGPNDRLLFVPISINYRT | 33 |  | 0.57 |  |  |
| K11 (designed binder, Del 1-8 10Fn3 clone; Flag tag of the assay form not included) EVVAATPTSLLISWRHPHFPTRYYRITYGETGGNSPVQEFTVPLQPPTATISGLKPGVDYTITGYAVTQAPNDRVLYTPISINYRT | 24 |  | 1.16 |  |  |
| K12 (designed binder, Del 1-8 10Fn3 clone; Flag tag of the assay form not included) EVVAATPTSLLISWRHPHFPTRYYRITYGETGGNSPVQEFTVPLQPPTATISGLKPGVDYTITGYAVTDVYNDHEIKTPISINYRT | 29 |  | 0.62 |  |  |
| K13 (designed binder, Del 1-8 10Fn3 clone; Flag tag of the assay form not included) EVVAATPTSLLISWRHPHFPTRYYRITYGETGGNSPVQEFTVPLQPPTATISGLKPGVDYTITGYAVTLALKGHELLTPISINYRT | 17 |  | 0.58 |  |  |
| K14 (designed binder, Del 1-8 10Fn3 clone; Flag tag of the assay form not included) EVVAATPTSLLISWRHPHFPTRYYRITYGETGGNSPVQEFTVPLQPPTATISGLKPGVDYTITGYAVTREENDHELLIPISINYRT | 20 |  | 0.57 |  |  |
| K15 (designed binder, Del 1-8 10Fn3 clone; Flag tag of the assay form not included) EVVAATPTSLLISWRHPHFPTRYYRITYGETGGNSPVQEFTVPLQPPTATISGLKPGVDYTITGYAVTEVHHDREIKTPISINYRT | 25 |  | 0.35 |  |  |
| E16 (designed binder, Del 1-8 10Fn3 clone; Flag tag of the radioactive-assay form not included) EVVAATPTSLLISWRHPHFPTRYYRITYGETGGNSPVQEFTVPLQPPTATISGLKPGVDYTITGYAVTVEENGRQLMTPISINYRT | 35 | 0 |  |  |  |
| E20 (designed binder, Del 1-8 10Fn3 clone; Flag tag of the radioactive-assay form not included) EVVAATPTSLLISWRHPHFPTRYYRITYGETGGNSPVQEFTVPLQPPTATISGLKPGVDYTITGYAVTVERNGQVLYTPISINYRT | 43 | 11 |  |  |  |
| K1 (designed binder, Del 1-8) EVVAATPTSLLISWRHPHFPTRYYRITYGETGGNSPVQEFTVPLQPPTATISGLKPGVDYTITGYAVTMGLYGHELLTPISINYRT |  |  |  | 0.55 | 48 |
| K2 (designed binder, Del 1-8) EVVAATPTSLLISWRHPHFPTRYYRITYGETGGNSPVQEFTVPLQPPTATISGLKPGVDYTITGYAVTDGENGQFLLVPISINYRT |  |  |  | 1.19 | 48 |
| K3 (designed binder, Del 1-8) EVVAATPTSLLISWRHPHFPTRYYRITYGETGGNSPVQEFTVPLQPPTATISGLKPGVDYTITGYAVTAGWDDHELFIPISINYRT |  |  |  | 1.15 | 45 |
| K4 (designed binder, Del 1-8) EVVAATPTSLLISWRHPHFPTRYYRITYGETGGNSPVQEFTVPLQPPTATISGLKPGVDYTITGYAVTAGYNDQILMTPISINYRT |  |  |  | 1.95 | 38 |
| K5 (designed binder, Del 1-8) EVVAATPTSLLISWRHPHFPTRYYRITYGETGGNSPVQEFTVPLQPPTATISGLKPGVDYTITGYAVTMGPNDNELLTPISINYRT |  |  |  | 1.54 | 47 |
| K6 (designed binder, Del 1-8) EVVAATPTSLLISWRHPHFPTRYYRITYGETGGNSPVQEFTVPLQPPTATISGLKPGVDYTITGYAVTDGKDGRVLLTPISINYRT |  |  |  | 0.93 | 27 |
| K7 (designed binder, Del 1-8) EVVAATPTSLLISWRHPHFPTRYYRITYGETGGNSPVQEFTVPLQPPTATISGLKPGVDYTITGYAVTSGHNDHMLMIPISINYRT |  |  |  | 2.2 | 40 |
| K8 (designed binder, Del 1-8; 279 used) EVVAATPTSLLISWRHPHFPTRYYRITYGETGGNSPVQEFTVPLQPPTATISGLKPGVDYTITGYAVTVTHNGHPLMTPISINYRT |  |  |  | 3.3 | 18 |
| E23 (designed binder, Del 1-8 10Fn3 clone; Flag tag not included) EVVAATPTSLLISWRHHPHFPTRYYRITYGETGGNSPVQEFTVPLQPPTATISGLKPGVDYTITGYAVTVHWNGRELMTPISINYRT | 36 | 7 |  |  |  |
